According to PMC6282759, “FlhF(T368A) modulates motility in the bacteriophage carrier state of Campylobacter jejuni” (Molecular Microbiology, 2018):

Tested on: Nc1nc2c(ncn2[C@@H]2O[C@H](COP(=O)(O)OP(=O)(O)OP(=O)(O)O)[C@@H](O)[C@H]2O)c(=O)[nH]1
Assay: purified protein
Conditions: 42 °C, Tris buffer, MgCl2, GTP 0.05-1 mM

## FlhF (Campylobacter jejuni subsp. jejuni NCTC 11168 = ATCC 700819)
  Km: 75 µM
  kcat: 0.0115 s⁻¹
